Biological target: T1, Drosophila Su(H) (aa 98–523) (Drosophila, UniProt P28159 98-523)
T1 construct: Suppressor of Hairless, Su(H), Drosophila, residues 98-523; also called Suppressor of Hairless; CSL transcription factor
Assay: native gel or EMSA; purified proteins mixed with fluorescently labelled 2xCSL17 and 1xSPS15 DNA probes, room temperature 20 minutes; Su(H) 2.5 to 160 nM, 2 μM Hairless or NICD/Mam; the protein complexes are seen bound to the DNA probe; band intensities fitted to a 2-site equilibrium model
Settings: both partners purified

T1 sequence (P28159 98-523): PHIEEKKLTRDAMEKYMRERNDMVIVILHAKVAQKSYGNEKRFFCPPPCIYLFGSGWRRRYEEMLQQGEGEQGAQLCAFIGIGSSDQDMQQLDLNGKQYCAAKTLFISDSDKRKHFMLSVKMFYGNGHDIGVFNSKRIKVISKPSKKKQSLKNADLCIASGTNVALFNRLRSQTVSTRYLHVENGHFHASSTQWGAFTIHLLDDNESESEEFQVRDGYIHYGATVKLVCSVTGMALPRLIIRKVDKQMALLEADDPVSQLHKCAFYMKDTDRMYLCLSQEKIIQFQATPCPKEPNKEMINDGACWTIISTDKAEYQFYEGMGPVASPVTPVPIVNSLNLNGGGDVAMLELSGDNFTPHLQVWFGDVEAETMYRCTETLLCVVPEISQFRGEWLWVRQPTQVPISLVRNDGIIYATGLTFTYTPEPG

B1: Drosophila Mastermind (aa 87–307) (domain or fragment, UniProt P21519 87-307, looked up)
chain: PYNANLGATGGIAGITGGNGAGGPTNPGAVPTAPGDTMPTKRMPVVDRLRRRMENYRRRQTDCVPRYEQAFNTVCEQQNQETTVLQKRFLESKNKRAAKKTDKKLPDPSQQHQQQQHQQQQQHQQHQQHQQAQTMLAGQLQSSVHVQQKFLKRPAEDVDNGPDSFEPPHKLPNNNNNSNSNNNNGNANANNGGNGSNTGNNTNNNGNSTNNNGGSNNNGSE
notes: Mastermind, Drosophila, residues 87-307; also called Mam; MAM
binding result: binds

B2: Drosophila Notch intracellular domain, NICD (aa 1763–2142) (domain or fragment, UniProt P07207 1763-2142, looked up)
chain: VLSTQRKRAHGVTWFPEGFRAPAAVMSRRRRDPHGQEMRNLNKQVAMQSQGVGQPGAHWSDDESDMPLPKRQRSDPVSGVGLGNNGGYASDHTMVSEYEEADQRVWSQAHLDVVDVRAIMTPPAHQDGGKHDVDARGPCGLTPLMIAAVRGGGLDTGEDIENNEDSTAQVISDLLAQGAELNATMDKTGETSLHLAARFARADAAKRLLDAGADANCQDNTGRTPLHAAVAADAMGVFQILLRNRATNLNARMHDGTTPLILAARLAIEGMVEDLITADADINAADNSGKTALHWAAAVNNTEAVNILLMHHANRDAQDDKDETPLFLAAREGSYEACKALLDNFANREITDHMDRLPRDVASERLHHDIVRLLDEHVPR
notes: Notch, Drosophila, intracellular domain, residues 1763-2142
binding result: binds

Reference: PMC8494340, “Enhancers with cooperative Notch binding sites are more resistant to regulation by the Hairless co-repressor” (PLoS Genetics, 2020)
